This is an account of results in PMC3328447, “DNA Aptamers against the Lup an 1 Food Allergen”.

The subject of data set [1] is beta-conglutin (Lup an 1) (lupin). Description: SPR. The settings on record: 10 mM phosphate, 138 mM NaCl, 2.7 mM KCl, 1.5 mM MgCl2, pH 7.4; ELONA at 21 C, SPR temperature not stated (Biacore 3000, CM5). (Surface plasmon resonance follows binding to a sensor surface in real time, without labels.)
The test system is the same in data set [2]. Description: competition. Conditions: 10 mM phosphate, 138 mM NaCl, 2.7 mM KCl, 1.5 mM MgCl2, pH 7.4; ELONA at 21 C, SPR temperature not stated (Biacore 3000, CM5).
The target in data set [3] is T1, gamma-conglutin (lupin, UniProt Q9FSH9;Q9FSH9 34-300;301-452).
T1 sequence 1: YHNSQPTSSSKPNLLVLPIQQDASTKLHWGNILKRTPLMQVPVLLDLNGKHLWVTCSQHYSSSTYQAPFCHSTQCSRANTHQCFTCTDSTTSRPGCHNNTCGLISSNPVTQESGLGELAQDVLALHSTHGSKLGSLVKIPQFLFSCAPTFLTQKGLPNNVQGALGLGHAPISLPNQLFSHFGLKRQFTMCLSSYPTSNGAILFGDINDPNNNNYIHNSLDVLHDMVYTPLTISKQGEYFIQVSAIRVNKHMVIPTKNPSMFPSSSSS
T1 sequence 2: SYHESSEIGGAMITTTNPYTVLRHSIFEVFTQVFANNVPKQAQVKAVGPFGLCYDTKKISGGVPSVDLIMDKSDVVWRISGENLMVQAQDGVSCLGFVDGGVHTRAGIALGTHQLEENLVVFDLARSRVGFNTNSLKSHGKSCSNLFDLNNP
Description: SPR; 10 uM DNA, 1.5 mM Mg2+; signal negligible; 10 mM phosphate, 138 mM NaCl, 2.7 mM KCl, 1.5 mM MgCl2, pH 7.4; ELONA at 21 C, SPR temperature not stated (Biacore 3000, CM5). The settings on record: protein: native, tags: none, label: none, single strand, predicted stem-loops and G-quadruplex (m-fold, QGRS).

For orientation: Kd means the concentration at which binding is half-saturated. A low value points to a tighter complex. In the case of “AGCTGACACAGCAGGTTGGTGGGGGTGGCTCACATCATGGTAGAATGACTGAACAGCGTTGATTAAAAGGCACGAGTCGAGCAATCTCGAAAT [Sequence 2 (S2)]”, the Kd in data set [1] was found to be 515 nM.
One may read the IC50 as the point on the concentration scale where inhibition reaches its midpoint. A higher IC50 goes with weaker potency. In the case of “AGCTGACACAGCAGGTTGGTGGGGGTGGCTTCCAGTTGGGTTGACAATACGTAGGGACACGAAGTCCAACCACGAGTCGAGCAATCTCGAAAT [Sequence 40 (S40)]”, in data set [1], the Kd came out at 360 nM. Besides, the IC50 in data set [2] stood at 393 nM.

B1: Sequence 40 (S40) (structured_DNA)
DNA: AGCTGACACAGCAGGTTGGTGGGGGTGGCTTCCAGTTGGGTTGACAATACGTAGGGACACGAAGTCCAACCACGAGTCGAGCAATCTCGAAAT
Regarding B1, the binding result in data set [3] (biotinylated probe S4 hybridised to 3' end for ELONA detection) is recorded as “no binding”.

B2: Sequence 2 (S2) (structured_DNA)
DNA: AGCTGACACAGCAGGTTGGTGGGGGTGGCTCACATCATGGTAGAATGACTGAACAGCGTTGATTAAAAGGCACGAGTCGAGCAATCTCGAAAT
In the case of B2, in data set [3], the binding result was “no binding”.
